B1: SAGE1 (Sarcoma antigen 1), full-length protein in cells (other)
chain: MQASPLQTSQPTPPEELHAAAYVFTNDGQQMRSDEVNLVATGHQSKKKHSRKSKRHSSSKRRKSMSSWLDKQEDAAVTHSICEERINNGQPVADNVLSTAPPWPDATIAHNIREERMENGQSRTDKVLSTAPPQLVHMAAAGIPSMSTRDLHSTVTHNIREERMENGQPQPDNVLSTGPTGLINMAATPIPAMSARDLYATVTHNVCEQKMENVQPAPDNVLLTLRPRRINMTDTGISPMSTRDPYATITYNVPEEKMEKGQPQPDNILSTASTGLINVAGAGTPAISTNGLYSTVPHNVCEEKMENDQPQPNNVLSTVQPVIIYLTATGIPGMNTRDQYATITHNVCEERVVNNQPLPSNALSTVLPGLAYLATADMPAMSTRDQHATIIHNLREEKKDNSQPTPDNVLSAVTPELINLAGAGIPPMSTRDQYATVNHHVHEARMENGQRKQDNVLSNVLSGLINMAGASIPAMSSRDLYATITHSVREEKMESGKPQTDKVISNDAPQLGHMAAGGIPSMSTKDLYATVTQNVHEERMENNQPQPSYDLSTVLPGLTYLTVAGIPAMSTRDQYATVTHNVHEEKIKNGQAASDNVFSTVPPAFINMAATGVSSMSTRDQYAAVTHNIREEKINNSQPAPGNILSTAPPWLRHMAAAGISSTITRDLYVTATHSVHEEKMTNGQQAPDNSLSTVPPGCINLSGAGISCRSTRDLYATVIHDIQEEEMENDQTPPDGFLSNSDSPELINMTGHCMPPNALDSFSHDFTSLSKDELLYKPDSNEFAVGTKNYSVSAGDPPVTVMSLVETVPNTPQISPAMAKKINDDIKYQLMKEVRRFGQNYERIFILLEEVQGSMKVKRQFVEFTIKEAARFKKVVLIQQLEKALKEIDSHCHLRKVKHMRKR
notes: Endogenous protein in HuTu 80, K562, U2OS and KYSE30 cells (IP-MS); also called endogenous SAGE1; ectopically expressed SAGE1
B2: INIP (INTS3 and NABP interacting protein) (other, UniProt Q9NRY2 2-104, looked up)
chain: AANSSGQGFQNKNRVAILAELDKEKRKLLMQNQSSTNHPGASIALSRPSLNKDFRDHAEQQHIAAQQKAALQHAHAHSSGYFITQDSAFGNLILPVLPRLDPE
B3: mutant SAGE1I3BD (other)
chain: AMAKKINDDIKYQLAKEVRRAGANYERIFILLEEVQGSMKVKRQFVEFTIKEAAAAAKVVLIQQLEKALKEIDSHCHLRKVKHMRKR
notes: also called mutant SAGE1I3BD (alanine substitutions of six key interface residues)

In test [1] the target is T1, CBP (CRBP-binding protein) (UniProt Q92793 2-2442, limits assumed).
T1 construct: also called CREBBP
T1 sequence (Q92793 2-2442 limits assumed): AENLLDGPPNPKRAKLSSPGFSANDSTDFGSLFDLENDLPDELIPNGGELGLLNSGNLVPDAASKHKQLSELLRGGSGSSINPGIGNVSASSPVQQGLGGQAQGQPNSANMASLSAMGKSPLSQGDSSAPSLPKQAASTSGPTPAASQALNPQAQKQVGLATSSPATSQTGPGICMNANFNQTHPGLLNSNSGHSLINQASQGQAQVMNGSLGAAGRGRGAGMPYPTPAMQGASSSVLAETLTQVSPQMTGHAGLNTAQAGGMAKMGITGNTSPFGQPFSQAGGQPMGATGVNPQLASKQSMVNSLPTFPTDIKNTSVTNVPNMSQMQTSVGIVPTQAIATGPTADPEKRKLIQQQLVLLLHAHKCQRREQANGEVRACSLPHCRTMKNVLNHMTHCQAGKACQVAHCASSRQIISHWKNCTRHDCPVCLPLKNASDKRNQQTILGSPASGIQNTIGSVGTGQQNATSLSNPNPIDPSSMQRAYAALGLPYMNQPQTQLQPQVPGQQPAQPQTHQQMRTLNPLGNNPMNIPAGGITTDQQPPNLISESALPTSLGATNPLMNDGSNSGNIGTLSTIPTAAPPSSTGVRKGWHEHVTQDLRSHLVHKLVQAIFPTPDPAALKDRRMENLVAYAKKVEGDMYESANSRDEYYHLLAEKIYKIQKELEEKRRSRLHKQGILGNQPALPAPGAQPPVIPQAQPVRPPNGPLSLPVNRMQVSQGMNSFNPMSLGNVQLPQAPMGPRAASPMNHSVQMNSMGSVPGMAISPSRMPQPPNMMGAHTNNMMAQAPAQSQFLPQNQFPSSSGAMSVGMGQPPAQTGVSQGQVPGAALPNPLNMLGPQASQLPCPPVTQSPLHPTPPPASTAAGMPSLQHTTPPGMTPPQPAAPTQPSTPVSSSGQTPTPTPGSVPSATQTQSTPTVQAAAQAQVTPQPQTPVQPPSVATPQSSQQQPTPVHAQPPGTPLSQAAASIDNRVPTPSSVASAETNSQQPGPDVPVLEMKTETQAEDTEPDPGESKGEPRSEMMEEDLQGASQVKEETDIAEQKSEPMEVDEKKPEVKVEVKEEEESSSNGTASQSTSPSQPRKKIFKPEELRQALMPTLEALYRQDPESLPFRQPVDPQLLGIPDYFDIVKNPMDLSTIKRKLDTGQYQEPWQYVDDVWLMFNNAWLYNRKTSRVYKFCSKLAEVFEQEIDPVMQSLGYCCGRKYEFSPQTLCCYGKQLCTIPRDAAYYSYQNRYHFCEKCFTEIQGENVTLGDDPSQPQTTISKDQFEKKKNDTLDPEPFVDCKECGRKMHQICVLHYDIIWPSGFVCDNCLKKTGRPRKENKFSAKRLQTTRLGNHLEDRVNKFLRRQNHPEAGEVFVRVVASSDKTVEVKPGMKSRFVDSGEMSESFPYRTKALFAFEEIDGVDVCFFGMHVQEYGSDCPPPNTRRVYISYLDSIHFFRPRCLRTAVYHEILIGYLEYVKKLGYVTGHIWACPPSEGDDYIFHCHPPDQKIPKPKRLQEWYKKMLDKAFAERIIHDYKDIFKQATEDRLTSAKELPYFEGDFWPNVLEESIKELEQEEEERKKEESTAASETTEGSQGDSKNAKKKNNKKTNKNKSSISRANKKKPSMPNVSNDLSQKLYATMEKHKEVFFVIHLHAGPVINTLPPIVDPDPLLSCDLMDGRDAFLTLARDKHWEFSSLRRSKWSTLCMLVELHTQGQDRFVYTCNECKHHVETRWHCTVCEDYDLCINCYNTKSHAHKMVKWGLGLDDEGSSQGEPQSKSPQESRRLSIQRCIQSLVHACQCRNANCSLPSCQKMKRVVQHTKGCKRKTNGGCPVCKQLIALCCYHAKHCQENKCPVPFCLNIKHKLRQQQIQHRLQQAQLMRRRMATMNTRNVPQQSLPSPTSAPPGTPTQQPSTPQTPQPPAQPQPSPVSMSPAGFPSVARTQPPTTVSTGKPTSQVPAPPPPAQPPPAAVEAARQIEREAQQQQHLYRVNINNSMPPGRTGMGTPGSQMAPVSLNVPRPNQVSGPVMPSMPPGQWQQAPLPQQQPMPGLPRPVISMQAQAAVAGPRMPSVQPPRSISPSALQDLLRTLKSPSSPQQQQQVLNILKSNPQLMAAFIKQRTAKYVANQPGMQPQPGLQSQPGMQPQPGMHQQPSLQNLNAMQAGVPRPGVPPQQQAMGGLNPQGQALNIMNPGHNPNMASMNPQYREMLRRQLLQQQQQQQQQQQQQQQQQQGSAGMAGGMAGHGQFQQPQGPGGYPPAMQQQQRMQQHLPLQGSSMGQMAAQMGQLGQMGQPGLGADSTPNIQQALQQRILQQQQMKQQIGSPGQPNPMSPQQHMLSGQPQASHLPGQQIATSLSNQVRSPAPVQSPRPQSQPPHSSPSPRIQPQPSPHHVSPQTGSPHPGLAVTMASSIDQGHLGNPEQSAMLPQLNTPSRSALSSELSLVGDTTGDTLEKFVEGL
As to the kind of experiment: IP of the endogenous SAGE1 complex with anti-SAGE1 antibody (HuTu 80 and other SAGE1-expressing cancer cell lines), MS. An excerpt:
(§1) To gain mechanistic insight into SAGE1 function in tumorigenesis, we performed a proteomic analysis of the endogenous SAGE1 complex pulled down in HuTu 80 cells by an anti-SAGE1 antibody. The complex was resolved by SDS-PAGE, visualized by silver staining, and subjected to MS analysis (FIG. 6A and FIGS. 14A-14D). A number of proteins previously linked to transcriptional regulation were reproducibly identified as high-confidence SAGE1 interactors, including CBP (CRBP-binding protein), TLE (Groucho/Transducin-Like Enhancer of Split) proteins, INTS3 (a component of the Integrator complex) and INTS3-binding partners NABP (Nucleic Acid Binding Protein) and INIP (INTS3 and NABP interacting protein) (FIG. 6B). […] The interactions between SAGE1 and these proteins were further confirmed by co-immunoprecipitation (co-IP) analysis (FIG. 6C and FIG. 6D).
(§2) For IP, 1×10^7 cells were lysed in lysis buffer (20 mM Tris-HCl, 150 mM NaCl, 10% Glycerol, 0.5% TritonX-100, 1 mM EDTA, 1 mM EGTA, pH7.4) supplemented with protease inhibitor cocktail (Sigma-Aldrich, #B14001), incubated in 4° C. for 10 min and sonicated by Bioruptor Plus (Diagenode) (5-10% amplitude/power, ON 5 sec-OFF 5 sec) for 1 min. After centrifugation (14,000 rpm, 15 min, 4° C., 1 mg of supernatants were incubated with 5 μg of rabbit anti-SAGE1 polyclonal antibody (Novus Biologicals, #NBP1-84355, or Abcam, #ab233388) and rabbit anti- […]

The target of test [2] is INTS3 (integrator complex subunit 3), endogenous full-length protein (human, UniProt Q68E01 2-1043). As to the kind of experiment: IP-MS with anti-INTS3 antibody in SAGE1-overexpressing 293T cells. Here is the method:
Given that SAGE1I3BD highly resembles INTS6I3BD, it is likely that they interact with INTS3CTD in a mutually exclusive manner. To test this idea, we mixed purified INTS3CTD-INTS6I3BD complex with GST-tagged SAGE1I3BD and conducted a GST-pull-down analysis.
For IP, 1×10^7 cells were lysed in lysis buffer (20 mM Tris-HCl, 150 mM NaCl, 10% Glycerol, 0.5% TritonX-100, 1 mM EDTA, 1 mM EGTA, pH7.4) supplemented with protease inhibitor cocktail (Sigma-Aldrich, #B14001), incubated in 4° C. for 10 min and sonicated by Bioruptor Plus (Diagenode) (5-10% amplitude/power, ON 5 sec-OFF 5 sec) for 1 min. After centrifugation (14,000 rpm, 15 min, 4° C., 1 mg of supernatants were incubated with 5 μg of rabbit anti-SAGE1 polyclonal antibody (Novus Biologicals, #NBP1-84355, or Abcam, #ab233388) and rabbit anti-
INTS3 polyclonal antibody (Novus Biologicals, #NBP1-19091) for 16 hours respectively. Next day, 20 μL of Protein G beads (Millipore, #LSKMAGG02) were added into each tube and incubated for 3 more hours. Then beads were harvested and washed for three times with lysis buffer and eluted by 0.2 M Glycine (pH 2.2).

Test [3] addresses B1. Briefly: IP of the endogenous SAGE1 complex with anti-SAGE1 antibody (HuTu 80 and other SAGE1-expressing cancer cell lines), MS.
Source text: as §1, §2

Test [4] has as its target T2, INTS3CTD (C-terminal domain of INTS3, residues 572-978) (human, UniProt Q68E01 573-979).
T2 construct: also called INTS3CTD dimer
Briefly: ITC. Here is the method:
The equilibrium dissociation constant of the SAGE1I3BD-INTS3CTD interaction was determined using a MicroCal iTC200 calorimeter (Malvern). The binding enthalpy was measured at 16° C. in 25 mM Tris-HCl pH 8.0, 150 mM NaCl and 5 mM MgCl2. Two independent experiments were performed. ITC data were subsequently analyzed and fitted using Origin 7 software (OriginLab).
All statistical tests of experimental results were performed using the GraphPad Prism 7 unless noted. The statistical significance was calculated via unpaired two-tailed Student's t test. The dissociation constants (Kd) in ITC experiments were calculated using the Origin 7 software as mean±standard error from two independent experiments with a single site-specific binding model. The statistical analysis of in vivo experiments data was performed using nonparametric Mann-Whitney test. Results were represented as mean±standard deviation unless noted and p<0.05 was considered statistically significant.
For orientation: ITC needs no label: the signal is the heat of the interaction.

Experimental findings from patent US20230031980A1 (SHANGHAI NINTH PEOPLE S HOSPITAL SHANGHAI JIAO TONG …, published 2023) are described below.

Sequence of INTS3 (integrator complex subunit 3), endogenous full-length protein (Q68E01 2-1043 limits assumed, one chain of several): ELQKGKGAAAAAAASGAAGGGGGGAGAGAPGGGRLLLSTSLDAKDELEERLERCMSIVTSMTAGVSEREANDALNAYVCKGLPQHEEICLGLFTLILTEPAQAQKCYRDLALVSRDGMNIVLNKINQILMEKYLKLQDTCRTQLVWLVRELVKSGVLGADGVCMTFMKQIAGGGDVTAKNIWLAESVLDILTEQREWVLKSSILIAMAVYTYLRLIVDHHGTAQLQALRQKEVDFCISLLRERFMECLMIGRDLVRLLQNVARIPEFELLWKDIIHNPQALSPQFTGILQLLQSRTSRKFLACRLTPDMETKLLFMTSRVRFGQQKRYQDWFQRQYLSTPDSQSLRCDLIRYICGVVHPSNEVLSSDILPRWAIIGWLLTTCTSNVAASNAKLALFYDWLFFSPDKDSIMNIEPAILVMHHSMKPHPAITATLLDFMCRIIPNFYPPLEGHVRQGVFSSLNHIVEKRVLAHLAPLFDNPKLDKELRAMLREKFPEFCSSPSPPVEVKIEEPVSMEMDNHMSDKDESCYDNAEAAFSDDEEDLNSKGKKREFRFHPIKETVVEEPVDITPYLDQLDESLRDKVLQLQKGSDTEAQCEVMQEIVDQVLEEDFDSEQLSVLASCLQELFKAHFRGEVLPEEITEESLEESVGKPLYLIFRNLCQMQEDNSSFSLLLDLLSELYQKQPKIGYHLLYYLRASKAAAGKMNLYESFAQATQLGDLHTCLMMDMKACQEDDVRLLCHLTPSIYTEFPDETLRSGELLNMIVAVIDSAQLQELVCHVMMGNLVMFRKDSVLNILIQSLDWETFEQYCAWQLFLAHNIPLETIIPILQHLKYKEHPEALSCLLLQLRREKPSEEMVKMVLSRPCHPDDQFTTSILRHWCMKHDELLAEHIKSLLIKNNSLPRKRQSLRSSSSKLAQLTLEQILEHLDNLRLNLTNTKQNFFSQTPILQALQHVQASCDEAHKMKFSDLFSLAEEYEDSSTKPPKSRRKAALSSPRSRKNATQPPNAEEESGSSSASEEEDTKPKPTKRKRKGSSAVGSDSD

As to B1, the binding result in test [1] and in test [2] was “binds” throughout.

In the case of B2, in test [3], the binding result was “binds”.

For the molecule B3, the binding result in test [4] was “no binding”.
